In paper PMC4109836, “Analysis of the co-operative interaction between the allosterically regulated proteins GK and GKRP using tryptophan fluorescence” (Biochemical Journal, 2014):
Where two headings read alike, the source gives them in different places. Values belong to the molecule of their own block, whether it stands above or below them.

Legend:
GKRP-P446L [1] = target: T1, GKRP-P446L (Homo sapiens, UniProt Q14397, P446L); test: Ligand binding to free GKRP-P446L measured by TF of GKRP
T1 construct: FLAG; made in house; host or cells: Escherichia coli
T1 sequence (Q14397 1-625 P446L): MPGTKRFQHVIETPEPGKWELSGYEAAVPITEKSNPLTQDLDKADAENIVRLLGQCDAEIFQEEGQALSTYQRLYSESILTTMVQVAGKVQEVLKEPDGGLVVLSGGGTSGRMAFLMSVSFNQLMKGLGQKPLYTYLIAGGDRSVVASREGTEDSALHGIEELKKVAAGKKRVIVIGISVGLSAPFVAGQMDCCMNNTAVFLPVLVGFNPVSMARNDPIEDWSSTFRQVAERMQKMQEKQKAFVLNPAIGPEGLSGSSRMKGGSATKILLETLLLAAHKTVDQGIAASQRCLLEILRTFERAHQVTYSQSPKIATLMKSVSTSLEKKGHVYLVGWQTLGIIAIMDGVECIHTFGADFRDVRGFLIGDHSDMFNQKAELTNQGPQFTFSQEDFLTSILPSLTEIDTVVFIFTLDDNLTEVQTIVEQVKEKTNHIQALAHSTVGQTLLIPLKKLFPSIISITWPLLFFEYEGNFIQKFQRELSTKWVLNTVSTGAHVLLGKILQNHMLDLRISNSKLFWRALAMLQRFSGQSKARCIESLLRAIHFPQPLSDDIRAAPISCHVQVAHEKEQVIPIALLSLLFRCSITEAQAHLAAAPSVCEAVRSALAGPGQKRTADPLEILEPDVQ

GK (glucokinase) = details: cited from earlier work
GKRP-P446L [2] = target: T2, GKRP-P446L (Homo sapiens, UniProt P35557+Q14397, P446L/W167F/W257F/W99R); test: Titration of GKRP-P446L with GK-W99R/W167F/W257F (GK–GKRP complex assembly) by TF; format: binding; set-up: ΔF: scale not given here; details: for Kd: read-out: S0.5 of GK
T2 construct: FLAG; GST (cleaved yes); made in house; host or cells: Escherichia coli
T2 sequence (Q14397 1-625 P446L): T1 sequence (Q14397 1-625 P446L)
T2 sequence (P35557 1-465 W99R/W167F/W257F): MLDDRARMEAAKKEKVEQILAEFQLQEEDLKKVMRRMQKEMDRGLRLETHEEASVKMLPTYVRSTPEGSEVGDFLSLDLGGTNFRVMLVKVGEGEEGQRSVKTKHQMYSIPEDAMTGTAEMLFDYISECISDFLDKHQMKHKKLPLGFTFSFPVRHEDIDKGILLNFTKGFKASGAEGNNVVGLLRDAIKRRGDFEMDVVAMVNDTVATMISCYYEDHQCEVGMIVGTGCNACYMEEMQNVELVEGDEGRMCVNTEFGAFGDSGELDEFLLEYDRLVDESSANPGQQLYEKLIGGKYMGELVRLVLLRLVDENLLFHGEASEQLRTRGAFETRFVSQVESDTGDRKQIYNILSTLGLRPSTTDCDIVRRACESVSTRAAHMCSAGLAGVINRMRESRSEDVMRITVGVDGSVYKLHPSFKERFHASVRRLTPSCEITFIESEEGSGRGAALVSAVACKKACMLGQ
Protocol: Spectra were measured with a Fluorolog-3-21 Jobin-Yvon Spex Instrument SA equipped with a 450 W Xenon lamp for excitation and a cooled R2658P Hamamatsu photomultiplier tube for detection. For all measurements, 90° geometry was employed and 295 nm excitation wavelengths were used to observe fluorescence emission in the 300–500 nm range. For TF, spectra slit width was set to provide a bandpath of 3 nm for excitation and 3 nm for emission. Spectra were corrected for instrumental response using Spex instrument software. A thermostatically controlled cell holder maintained sample temperature at 20°C. A thermocoupler was used to measure sample temperature. The buffer used contained 20 mM phosphate, 50 mM KCl, 1 mM EDTA and 1 mM DTT (pH 7.2).
Fluorescence data were obtained via the stepwise addition of the appropriate amount of non-fluorescent GK-W99R/W167F/W257F to GKRP in a fluorescence cuvette. […] The change in GKRP protein fluorescence during titration was also measured using time-dependent scans. A manual procedure was used such that a typical titration with 10–12 additions required 20–25 min to perform. The same buffer as described above was routinely used unless stated otherwise. The bandpath was 0.5 nm at 295 nm for excitation and 12 nm at 340 nm for emission. […] For some graphical presentations the linear form of the Hill equation was used: log[F/(Fsat−F)]=H log x−H log KD [46].

[3] = 0.3 μM GKRP-P446L, ligand alone, 20°C
[4] = GK titration with 20 μM GKA, 20°C
[5] = GK titration with 500 μM F1P, 20°C
[6] = GK titration with 500 μM F6P, sigmoidal fit, 20°C
[7] = GK titration with 500 μM F6P, simple saturation fit (H = 1)
[8] = GK titration with 100 mM D-glucose and 20 μM GKA, 20°C
[9] = GK titration with 100 mM D-glucose and 500 μM F1P, 20°C
[10] = GK titration with 100 mM D-glucose and 500 μM F6P, 20°C
[11] = GK titration with 100 mM D-glucose, 20°C
[12] = GK titration, no further agent, sigmoidal fit, 20°C
[13] = GK titration, no further agent, simple saturation fit (H = 1)

Kd (GKRP-P446L [1]; 0.3 μM GKRP-P446L, D-glucose alone, 20°C, read-out: S0.5): 27 mM
H (Hill number) (GKRP-P446L [1]; [3]): 1.49
ΔF (relative fluorescence change at 340 nm) (GKRP-P446L [1]; [3]): −0.06
effect on the TF signal of GKRP-P446L (GKRP-P446L [1]; ligand alone): lowered the TF signal
Molecule: OC[C@H]1OC(O)[C@H](O)[C@@H](O)[C@@H]1O (stereo partly drawn) [D-Glucose, D-glucose]
Hill coefficient of GK with respect to glucose (GK (glucokinase)): approximately 1.7
affinity of GK for glucose (GK (glucokinase)): approximately 7.5 mM

H (GKRP-P446L [2]; [4]): 2.17
ΔF (GKRP-P446L [2]; [4]): 0.43
Kd (GKRP-P446L [2]; [4]): 2590 nM
H (GKRP-P446L [2]; [5]): 2.84
ΔF (GKRP-P446L [2]; [5]): 0.41
Kd (GKRP-P446L [2]; [5]): 2950 nM
H (GKRP-P446L [2]; [6]): 1.31
ΔF (GKRP-P446L [2]; [6]): 0.44
Kd (GKRP-P446L [2]; [6]): 1660 nM
H (GKRP-P446L [2]; GK titration with 500 μM F6P, simple saturation fit): 1
ΔF (GKRP-P446L [2]; [7]): 0.55
Kd (GKRP-P446L [2]; [7]): 2450 nM
H (GKRP-P446L [2]; [8]): 2.68
ΔF (GKRP-P446L [2]; [8]): 0.42
Kd (GKRP-P446L [2]; [8]): 3550 nM
H (GKRP-P446L [2]; [9]): 2.77
ΔF (GKRP-P446L [2]; [9]): 0.44
Kd (GKRP-P446L [2]; [9]): 2970 nM
H (GKRP-P446L [2]; [10]): 2.45
ΔF (GKRP-P446L [2]; [10]): 0.42
Kd (GKRP-P446L [2]; [10]): 2840 nM
H (GKRP-P446L [2]; [11]): 2.94
ΔF (GKRP-P446L [2]; [11]): 0.43
Kd (GKRP-P446L [2]; [11]): 3380 nM
H (GKRP-P446L [2]; [12]): 1.86
ΔF (GKRP-P446L [2]; [12]): 0.44
Kd (GKRP-P446L [2]; [12]): 2050 nM
H (GKRP-P446L [2]; GK titration, no further agent, simple saturation fit): 1
ΔF (GKRP-P446L [2]; [13]): 0.82
Kd (GKRP-P446L [2]; [13]): 5230 nM
maximal ΔTF value of GKRP-P446L (GKRP-P446L [2]; range under all conditions tested): 0.41–0.44
increase of the TF of GKRP-P446L (GKRP-P446L [2]; saturating GK (5 μM), 0.3 μM GKRP): 44%
B1: GK-W99R/W167F/W257F: tryptophan residue-free, non-fluorescent recombinant human β-cell GK made for the present study (protein)
chain: T2 sequence (P35557 1-465 W99R/W167F/W257F)
modifications: left off: GST, end not stated, cleaved
notes: tryptophan residue-free, non-fluorescent recombinant human β-cell GK made for the present study
